Values joined by “and” are separate entries in the source; they are usually repeats but may differ in a detail not shown here. Equal values may be shown once.
T1: factor H comprising only domains 6-7 (UniProt P08603 321-443)
T1 sequence: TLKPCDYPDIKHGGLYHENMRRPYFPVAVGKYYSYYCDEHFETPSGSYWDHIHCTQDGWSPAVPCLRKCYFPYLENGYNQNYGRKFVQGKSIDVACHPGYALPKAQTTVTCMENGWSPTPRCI

B1: 231 S fusion polypeptide (v2-v3-v1 fHbp, stabilised) (other)
chain: MGPDSDRLQQRRVAADIGAGLADALTAPLDHKDKSLQSLTLDQVVRKNEKLKLAAQGAEKTYGNGDSLNTGKLKNDKVSRFDFIRQIEVDGQLITLESGEFQIYKQDHSAVVALQIEKINNPDKIDSLINQRSFRVSGLGGEHTAFNQLPDGKAEYHGKAFSSDDAGGKLTYTIDFAAKQGHGKIEHLKTPEQNVELAAAELKADEKSHAVILGDTRYGSEEKGTYHLALFGDRAQEIAGSATVKIGEKVHEIGIAGKQGSGGGGVAADIGTGLADALTAPLDHKDKGLKSLTLEDVIPQNGTLTLSAQGAEKTFKAGDKDNSLNTGKLKNDKISRFDFVQKIEVDGQTITLASGEFQIYKQNHSAVVALQIEKINNPDKTDSLINQRSFRVSGLGGEHTAFNQLPGGKAEYHGKAFSSDDPNGRLHYSIDFTKKQGYGRIEHLKTLEQNVELAAAELKADEKSHAVILGDTRYGSEEKGTYHLALFGDRAQEIAGSATVKIGEKVHEIGIAGKQGSGGGGVAADIGAGLADALTAPLDHKDKGLQSLTLDQSVSKNEKLKLAAQGAEKTYGNGDSLNTGKLKNDKVSRFDFIRQIEVDGQLITLESGEFQVYKQSHSALTAFQTEQIQDSEHSGKMVAKRQFRIGDIAGEHTSFDKLPEGGRATYRGTAFGSDDAGGKLTYTIDFAAKQGNGKIEHLKSPELNVDLAAADIKPDGKRHAVISGSVLYNQAEKGSYSLGIFGGKAQEVAGSAEVKTVNGIRHIGLAAKQ
B2: v3 fHbp with S32V (SEQ ID NO: 17 numbering) (other)
chain: VAADIGTGLADALTAPLDHKDKGLKSLTLEDVIPQNGTLTLSAQGAEKTFKAGDKDNSLNTGKLKNDKISRFDFVQKIEVDGQTITLASGEFQIYKQNHSAVVALQIEKINNPDKTDSLINQRSFLVSGLGGEHTAFNQLPGGKAEYHGKAFSSDDPNGRLHYSIDFTKKQGYGRIEHLKTLEQNVELAAAELKADEKSHAVILGDTRYGSEEKGTYHLALFGDRAQEIAGSATVKIGEKVHEIGIAGKQ

Tests used:
[1] = target: T1, factor H comprising only domains 6-7
[2] = target: factor H full length (Calbiochem) (UniProt P08603 19-1231)
Sequence of factor H full length (Calbiochem) (P08603 19-1231): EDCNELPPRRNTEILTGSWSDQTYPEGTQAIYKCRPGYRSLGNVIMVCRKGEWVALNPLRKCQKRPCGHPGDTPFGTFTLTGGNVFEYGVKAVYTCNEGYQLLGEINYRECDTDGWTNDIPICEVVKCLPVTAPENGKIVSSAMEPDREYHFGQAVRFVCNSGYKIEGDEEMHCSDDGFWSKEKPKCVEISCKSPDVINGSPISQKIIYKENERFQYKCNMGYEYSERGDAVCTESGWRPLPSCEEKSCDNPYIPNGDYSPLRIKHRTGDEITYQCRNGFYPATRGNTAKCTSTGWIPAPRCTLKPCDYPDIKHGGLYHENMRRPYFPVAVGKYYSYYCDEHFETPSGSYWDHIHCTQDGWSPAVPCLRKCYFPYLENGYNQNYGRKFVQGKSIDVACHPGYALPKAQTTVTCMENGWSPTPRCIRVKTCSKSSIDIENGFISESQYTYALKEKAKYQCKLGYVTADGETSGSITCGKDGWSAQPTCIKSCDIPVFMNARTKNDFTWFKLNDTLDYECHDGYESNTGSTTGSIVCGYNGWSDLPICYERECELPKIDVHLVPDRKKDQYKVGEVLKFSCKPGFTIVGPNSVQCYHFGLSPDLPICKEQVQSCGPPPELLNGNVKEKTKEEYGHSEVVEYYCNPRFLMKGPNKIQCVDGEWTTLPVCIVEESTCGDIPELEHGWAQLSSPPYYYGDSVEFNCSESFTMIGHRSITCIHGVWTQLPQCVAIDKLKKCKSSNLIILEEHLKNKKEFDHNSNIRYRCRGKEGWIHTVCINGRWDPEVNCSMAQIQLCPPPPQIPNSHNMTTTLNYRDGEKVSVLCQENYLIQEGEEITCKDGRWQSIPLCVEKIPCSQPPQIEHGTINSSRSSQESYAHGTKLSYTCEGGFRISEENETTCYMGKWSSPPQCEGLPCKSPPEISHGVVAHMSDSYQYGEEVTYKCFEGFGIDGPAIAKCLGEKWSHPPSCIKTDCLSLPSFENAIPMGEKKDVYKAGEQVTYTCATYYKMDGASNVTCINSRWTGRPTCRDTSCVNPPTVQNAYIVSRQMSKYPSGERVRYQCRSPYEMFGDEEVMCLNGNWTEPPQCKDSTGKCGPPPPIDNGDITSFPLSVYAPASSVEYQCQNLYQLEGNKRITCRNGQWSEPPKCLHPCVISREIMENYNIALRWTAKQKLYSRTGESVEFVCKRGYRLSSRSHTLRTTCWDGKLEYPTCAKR

[3] = target: T2, human factor H (fH), immobilised (human, UniProt P08603 19-1231); assay: SPR (FIG. 6)
T2 construct: also called human fH
T2 sequence (P08603 19-1231): as above

Binder	Kd [1]	Ration KD wt/x (residual binding) [1]	koff [1]	kon [1]	Kd [2]	Ration KD wt/x (residual binding) [2]	koff [2]	kon [2]	fold reduction of the SPR peak against wild-type v3 [3]
B1	158 nM and 280 nM	0.076	0.11 s⁻¹	710000 M⁻¹ s⁻¹	3100 nM	0.1	0.064 s⁻¹	21000 M⁻¹ s⁻¹	
B2									~2 fold
